Measured values published in US20060128618A1 (APLAGEN, published 2006).
*1 amine or outer side, *2 acyl side, *3 side chain or, on linkers, in order; H or OH if unused. Bridges are numbered along the chain shown (N, C = ends). Where no end group is shown, it is not given here. [ ]: non-standard residue; d: D form. Als = 5-aminolevulinic acid, O=C(CCC(=O)[*:2])CN[*:1]

T1: erythropoietin receptor (UniProt P19235 25-508, limits assumed)
T1 sequence (looked up): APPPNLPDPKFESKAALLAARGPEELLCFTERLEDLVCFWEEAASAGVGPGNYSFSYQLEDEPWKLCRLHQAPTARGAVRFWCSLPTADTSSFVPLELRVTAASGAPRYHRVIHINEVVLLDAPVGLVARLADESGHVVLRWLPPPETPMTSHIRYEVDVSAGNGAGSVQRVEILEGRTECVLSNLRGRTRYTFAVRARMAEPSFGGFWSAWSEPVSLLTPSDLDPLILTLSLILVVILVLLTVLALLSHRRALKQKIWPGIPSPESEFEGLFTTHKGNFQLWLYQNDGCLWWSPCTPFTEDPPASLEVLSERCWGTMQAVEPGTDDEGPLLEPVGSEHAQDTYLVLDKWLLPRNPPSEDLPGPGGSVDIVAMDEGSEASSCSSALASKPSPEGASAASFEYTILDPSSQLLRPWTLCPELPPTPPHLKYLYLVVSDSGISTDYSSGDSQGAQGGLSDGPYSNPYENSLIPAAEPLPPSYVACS


Each binder was assayed against T1, erythropoietin receptor (assay: cell-based or functional assay).

GGTYSCHF[Als]LTWVCKPQGG (disulfide 6-14 (inferred)) [peptide SEQ. ID NO. 7 GGTYSCHF-(Als)-LTWVCKPQGG] and GGTYSCHF[Als]LTWVCKKQGG (disulfide 6-14 (inferred)) [peptide SEQ. ID NO. 8 GGTYSCHF-(Als)-LTWVCKKQGG] are within 1.5-fold of each other in “EC50, proliferation assay with TF-1 cells by MTT” value (“EC50, proliferation assay” below): 5.26 µM for the first, 5 µM for the second.

Going from GGTYSCHFAKLTWVCKKQGG (disulfide 6-15 (inferred)) [peptide GGTYSCHFAKLTWVCKKQGG] to GGTYSCHFGKLTWVCKKQGG (disulfide 6-15 (inferred)) [peptide SEQ. ID NO. 2 GGTYSCHFGKLTWVCKKQGG], the “EC50, proliferation assay” value falls from 5.04 µM to 3.28 µM (1.5-fold).

Compared with GGTYSCHFGRLTWVCKKQGG (disulfide 6-15 (inferred)) [peptide SEQ. ID NO. 6 GGTYSCHFGRLTWVCKKQGG], GGTYSCHFGPLTWVCKKQGG (disulfide 6-15 (inferred)) [peptide GGTYSCHFGPLTWVCKKQGG] is 2-fold lower in “EC50, proliferation assay” value: 4.97 µM for the first, 2.52 µM for the second.

GGTYSCHFGKLTWVCKPQGG (disulfide 6-15 (inferred)) [peptide SEQ. ID NO. 4 GGTYSCHFGKLTWVCKPQGG] and GGTYSCHFGRLTWVCKPQGG (disulfide 6-15 (inferred)) [peptide SEQ. ID NO. 5 GGTYSCHFGRLTWVCKPQGG] are within 1.5-fold of each other in “EC50, proliferation assay” value: 4.66 µM for the first, 5.16 µM for the second.
